# Measurements as given in patent publication US9932382B2, “Kv2.1 channel-derived peptides and methods of use” (University of Pittsburgh—Of the Commonwealth System of …, priority 2014, dated 2018).
# B1: C1a: rat Kv2.1 C1a peptide, residues 411-522 of SEQ ID NO: 3, expressed from a plasmid (protein, listed as Rattus norvegicus)
# chain: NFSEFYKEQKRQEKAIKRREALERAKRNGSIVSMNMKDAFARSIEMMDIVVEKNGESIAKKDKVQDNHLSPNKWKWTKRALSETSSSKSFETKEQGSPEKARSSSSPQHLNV
# Test system: Kv2.1 K^+ currents
# Assay: Whole-cell patch clamp K+ currents in cortical neurons after DTDP
# Assay type: cell-based, rat
# Method: For electrophysiological experiments, mixed cortical neuronal/glial cultures were prepared from embryonic day 16 (E16) Sprague-Dawley rats (Charles River Laboratories, Wilmington, Mass., USA). Donor rats were euthanized by gradual CO2 exposure. Cortices were dissociated with trypsin, and the resultant cell suspension, adjusted to 670,000 cells per well, was plated on glass coverslips in 6-well plates as described previously (Hartnett et al., J Neurochem 68, 1836-1845, 1997). Non-neuronal cell proliferation was inhibited after two weeks in culture with 1-2 μM cytosine arabinoside, and cultures utilized at three to four weeks in vitro. For neuronal transfection, cells were treated for five hours in serum-free medium with 2 μL LIPOFECTAMINE™ 2000 (Invitrogen, Carlsbad, Calif.), 50 μL Optimem (GIBCO, Grand Island, N.Y.), and 1.5 μg DNA per well. […]
# Current recordings were performed on eGFP-positive co-transfected neurons or CHO cells using the whole-cell patch clamp configuration technique as described previously (McLaughlin et al., J Neurosci 21, 3303-3311, 2001). […] To determine current density values, steady-state current amplitudes were measured 180 msec after the initiation of the +10 mV step and normalized to cell capacitance. […]
molecule,measurement,setting,value
B1,effect on DTDP-induced enhancement of K+ current densities,"cortical neurons transfected with C1a-expressing plasmid, 30 μM DTDP 10 min, +10 mV step",failed to exhibit the enhanced K^+ current densities normally elicited by DTDP
same,"effect on non-apoptotic, basal delayed-rectifier K+ currents","cortical neurons, without DTDP",had no effect
